Values of other authors, collected in PMC10746543, “Design principles for cyclin K molecular glue degraders” (Nature Chemical Biology, 2023).
pKd: −log10 of the molar value.

Molecular target: CDK12-cyclin K (Homo sapiens) (UniProt Q9NYV4)
Sequence (Q9NYV4 whole entry, chain 1 of 2): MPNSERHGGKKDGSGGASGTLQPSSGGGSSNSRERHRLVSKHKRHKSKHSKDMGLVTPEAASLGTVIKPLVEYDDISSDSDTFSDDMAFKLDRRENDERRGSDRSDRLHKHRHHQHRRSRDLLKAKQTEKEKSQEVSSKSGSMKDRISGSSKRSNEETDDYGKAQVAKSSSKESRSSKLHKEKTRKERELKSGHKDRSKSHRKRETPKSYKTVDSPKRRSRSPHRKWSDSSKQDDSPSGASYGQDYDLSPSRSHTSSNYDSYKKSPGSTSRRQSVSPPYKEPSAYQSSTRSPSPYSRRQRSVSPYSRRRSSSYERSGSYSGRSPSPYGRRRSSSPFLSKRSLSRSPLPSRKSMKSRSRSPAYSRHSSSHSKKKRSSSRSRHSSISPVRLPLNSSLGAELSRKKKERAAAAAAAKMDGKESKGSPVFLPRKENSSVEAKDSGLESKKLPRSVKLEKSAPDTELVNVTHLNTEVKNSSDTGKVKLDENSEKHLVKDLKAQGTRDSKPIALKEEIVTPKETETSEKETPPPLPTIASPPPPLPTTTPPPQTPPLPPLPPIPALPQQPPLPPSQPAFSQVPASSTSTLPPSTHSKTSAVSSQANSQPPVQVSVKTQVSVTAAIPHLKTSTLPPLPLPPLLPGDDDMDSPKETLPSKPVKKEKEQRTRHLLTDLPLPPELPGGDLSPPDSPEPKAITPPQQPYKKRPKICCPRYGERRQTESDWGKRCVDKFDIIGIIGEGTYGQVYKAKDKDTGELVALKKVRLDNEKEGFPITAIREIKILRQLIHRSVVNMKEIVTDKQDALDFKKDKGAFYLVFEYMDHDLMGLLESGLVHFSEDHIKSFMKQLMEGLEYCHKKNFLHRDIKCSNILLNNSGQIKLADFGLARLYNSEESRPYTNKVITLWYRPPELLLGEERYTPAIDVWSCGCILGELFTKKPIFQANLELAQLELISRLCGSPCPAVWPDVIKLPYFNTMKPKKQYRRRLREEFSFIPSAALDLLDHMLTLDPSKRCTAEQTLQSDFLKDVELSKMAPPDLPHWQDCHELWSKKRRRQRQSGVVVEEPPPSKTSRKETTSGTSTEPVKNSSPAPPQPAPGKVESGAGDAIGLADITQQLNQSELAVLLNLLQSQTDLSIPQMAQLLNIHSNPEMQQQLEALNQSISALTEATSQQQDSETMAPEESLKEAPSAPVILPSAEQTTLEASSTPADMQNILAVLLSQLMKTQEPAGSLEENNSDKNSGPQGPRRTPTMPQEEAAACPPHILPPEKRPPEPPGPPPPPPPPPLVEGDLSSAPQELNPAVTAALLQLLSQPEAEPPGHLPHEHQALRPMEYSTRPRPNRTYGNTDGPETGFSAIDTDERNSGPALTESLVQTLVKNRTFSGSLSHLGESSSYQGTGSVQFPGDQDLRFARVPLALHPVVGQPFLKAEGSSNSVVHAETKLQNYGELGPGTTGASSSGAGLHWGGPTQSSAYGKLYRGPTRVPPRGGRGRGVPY
Sequence (O75909 whole entry, chain 2 of 2, further chain): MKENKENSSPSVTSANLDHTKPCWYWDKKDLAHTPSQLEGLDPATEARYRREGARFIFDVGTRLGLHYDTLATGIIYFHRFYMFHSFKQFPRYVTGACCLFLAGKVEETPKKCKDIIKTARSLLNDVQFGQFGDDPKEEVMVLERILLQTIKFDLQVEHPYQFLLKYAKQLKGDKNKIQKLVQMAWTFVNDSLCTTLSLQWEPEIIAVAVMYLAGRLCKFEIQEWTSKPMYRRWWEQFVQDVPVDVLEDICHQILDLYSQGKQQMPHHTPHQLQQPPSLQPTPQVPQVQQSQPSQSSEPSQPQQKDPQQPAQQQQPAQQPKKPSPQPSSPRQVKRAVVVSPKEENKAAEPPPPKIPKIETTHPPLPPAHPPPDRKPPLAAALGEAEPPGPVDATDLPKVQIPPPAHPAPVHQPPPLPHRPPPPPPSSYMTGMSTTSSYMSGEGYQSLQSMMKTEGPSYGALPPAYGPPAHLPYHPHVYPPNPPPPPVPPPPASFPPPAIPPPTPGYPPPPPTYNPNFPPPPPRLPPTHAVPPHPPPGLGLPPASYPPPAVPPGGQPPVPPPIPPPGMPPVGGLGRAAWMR

Sequence of DDB1 (Q16531 2-1140): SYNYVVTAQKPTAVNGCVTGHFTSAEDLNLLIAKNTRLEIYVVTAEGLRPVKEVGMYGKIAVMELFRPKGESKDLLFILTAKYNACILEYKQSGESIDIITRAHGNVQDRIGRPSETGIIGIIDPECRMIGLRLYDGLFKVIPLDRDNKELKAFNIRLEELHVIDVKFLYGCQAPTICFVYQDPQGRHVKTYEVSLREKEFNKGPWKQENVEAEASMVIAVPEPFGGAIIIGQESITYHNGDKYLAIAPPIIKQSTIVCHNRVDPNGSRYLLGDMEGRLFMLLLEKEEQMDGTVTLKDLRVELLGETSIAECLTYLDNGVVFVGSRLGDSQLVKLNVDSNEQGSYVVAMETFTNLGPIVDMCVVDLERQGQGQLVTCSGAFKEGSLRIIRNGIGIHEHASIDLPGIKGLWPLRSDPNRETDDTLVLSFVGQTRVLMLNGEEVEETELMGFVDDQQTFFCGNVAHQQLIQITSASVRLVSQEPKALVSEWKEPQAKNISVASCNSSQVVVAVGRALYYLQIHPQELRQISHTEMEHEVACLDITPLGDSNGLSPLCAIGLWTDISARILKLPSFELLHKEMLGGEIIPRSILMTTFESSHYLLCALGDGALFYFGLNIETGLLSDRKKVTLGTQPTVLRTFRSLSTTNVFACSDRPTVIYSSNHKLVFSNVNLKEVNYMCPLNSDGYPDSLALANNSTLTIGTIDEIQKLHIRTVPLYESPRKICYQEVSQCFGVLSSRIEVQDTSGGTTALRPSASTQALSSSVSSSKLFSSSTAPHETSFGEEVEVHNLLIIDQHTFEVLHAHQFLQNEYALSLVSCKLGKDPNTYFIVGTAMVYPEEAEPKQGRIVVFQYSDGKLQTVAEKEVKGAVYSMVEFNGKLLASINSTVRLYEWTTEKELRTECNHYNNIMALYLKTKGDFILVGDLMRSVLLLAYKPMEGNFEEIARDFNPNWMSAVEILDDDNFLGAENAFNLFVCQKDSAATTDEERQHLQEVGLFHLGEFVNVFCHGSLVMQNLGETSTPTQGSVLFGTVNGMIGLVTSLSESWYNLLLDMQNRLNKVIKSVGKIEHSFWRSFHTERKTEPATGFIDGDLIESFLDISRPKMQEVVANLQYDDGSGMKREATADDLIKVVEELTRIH

With DDB1 (from UniProt Q16531) as the substance, how does the pKd read?
The pKd was 4.30.
